Assay results from patent US20230109275A1 (AUTOLUS, published 2023).

Legend:
[1] = biological target: T1, TRBC1 (T cell receptor beta-chain constant domain 1), interaction partner protein injected in SPR (human, UniProt P01850 1-129, limits assumed); experiment: SPR (Biacore T200), antibody captured on anti-human IgG chip, TRBC1 injected, 25 C, 1:1 Langmuir fit
T1 construct: also called TCR beta constant region 1
Method: (§1) Surface plasmon resonance (SPR) was carried out on several of antibody variants of hJOVI-1 to ascertain affinity, association and dissociation rates. The sequence details of these variants Mut1 to Mut15 used in the Examples section of the present patent application are included in Tables 1 and 2. These anti-TRBC antibody variants have specificity for either TRBC1 or TRBC2.
(§2) SPR experiments were performed using a Biacore T200 instrument using HBSP1 as the running and dilution buffer (GE Healthcare BioSciences). BIAevaluation software version 2.0 (GE Healthcare) was used for data processing. For determination of the binding kinetics, mouse anti-human IgG (GE Healthcare) was covalently coupled to a CM5 Sensor Chip (GE Healthcare). Anti-TRBC1 or anti-TRBC2 antibodies were captured onto the flow cell, and various concentrations of interaction partner protein (TRBC1 or TRBC2) were injected over the flow cell at a flow rate of […] at a temperature of 25° C. A double reference subtraction was performed using buffer alone. Kinetic rate constants were obtained by curve fitting according to a 1:1 Langmuir binding model.

[2] = biological target: T2, TRBC2 on HPB-ALL cells engineered to express only TRBC2 (human, UniProt A0A5B9 1-178); experiment: internalisation of pHrodo red conjugated antibody, flow cytometry, 24 h
T2 construct: whole, on cells; also called HPB-ALL TRBC2; HPB-ALL TRBC2+
Method: (§3) Cell uptake of the anti-TRBC1 antibody hJOVI-1 and the anti-TRBC2 antibody KFN was tested on HPB-ALL cells that were engineered to express only TRBC1, only TRBC2, or which were the TRBC was knocked-out (KO). To this aim, the pH-sensitive fluorophore
(§4) Zenon pHrodo iFL red (Thermo Scientific), which has a 560/585 nm spectrum, was used to conjugate hJOVI-1 and KFN in IgG format following the manufacturer's recommendations. The irrelevant anti-HEL antibody was also conjugated for use as control. The conjugated antibodies were incubated with HPB-ALL TRBC1, HPB-ALL TRBC2 and HPB-ALL KO cells for 24 h at 37° C., 5% CO2. Test antibodies hJOVI-1, KFN, and anti-HEL were applied at 5 μg/ml in a 96-well plate with 5×10⁴ cells/well in 100 μl of RPMI 10% FBS. After 24 h, cells were washed, harvested and stained with 1:100 LIVE/DEAD™ Fixable Violet Dead Cell Stain (Thermofisher) for 10 min before being analysed by flow cytometry using a Fortessa flow cytometer (BD).

[3] = biological target: T3, TRBC1 on HPB-ALL cells engineered to express only TRBC1 (human, UniProt P01850 1-176); experiment: internalisation (9h), pHrodo green MFI, flow cytometry
T3 construct: whole, on cells; also called HPB-ALL TRBC1; HPB-ALL TRBC1+

[4] = biological target: T3, TRBC1 on HPB-ALL cells engineered to …; experiment: internalisation of pHrodo red conjugated antibody, flow cytometry, 24 h
Method: as §3, §4

[5] = biological target: T4, TRBC2 (T cell receptor beta-chain constant domain 2), interaction partner protein injected in SPR (human, UniProt A0A5B9 1-129, limits assumed); experiment: SPR (Biacore T200), antibody captured on anti-human IgG chip, TRBC2 injected, 25 C, 1:1 Langmuir fit
T4 construct: the construct is not described; also called TCR beta constant region 2
T4 sequence (A0A5B9 1-129 limits assumed): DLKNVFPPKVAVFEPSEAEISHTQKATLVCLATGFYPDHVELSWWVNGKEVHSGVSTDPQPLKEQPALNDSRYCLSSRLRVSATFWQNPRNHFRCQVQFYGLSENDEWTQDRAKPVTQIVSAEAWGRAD
Method: as §1, §2

[6] = biological target: T2, TRBC2 on HPB-ALL cells engineered to …; experiment: internalisation (9h), pHrodo green MFI, flow cytometry
[7] = biological target: T2, TRBC2 on HPB-ALL cells engineered to …; experiment: internalisation of pHrodo green conjugated antibody, flow cytometry

T1 sequence (P01850 1-129 limits assumed): as the sequence (A0A5B9 1-129 limits assumed) above, with K3N, N4K, K9E, Y36F counted along it

Binder	Kd [1] [nM]	koff [1] [s⁻¹]	kon [1] [M⁻¹ s⁻¹]	other results
hJOVI-1 (humanised JOVI-1 antibody, reference antibody) (antibody, V domains shown, Tested in IgG format and captured by anti-human IgG in SPR; also called aTRBC1; anti-TRBC1 antibody hJOVI-1) VH: QVQLVQSGAEVKKPGASVKVSCKASGYTFTGYVMHWVRQAPGQGLEWMGFINPYNDDIQSNERFRGRVTMTRDTSISTAYMELSRLRSDDTAVYYCARGAGYNFDGAYRFFDFWGQGTMVTVSS VL: DIVMTQSPLSLPVTPGEPASISCRSSQRLVHSNGNTYLHWYLQKPGQSPRLLIYRVSNRFPGVPDRFSGSGSGTDFTLKISRVEAEDVGVYYCSQSTHVPYTFGQGTKLEIK	2.57	0.000618	238000	binding result [2]: no binding (tested: 5 µg/ml)
Mut15-MMAE (antibody, V domains shown, mc-vc-PAB-MMAE conjugated to reduced inter-chain cysteines; drug-antibody ratio 3.2, also called MMAE-conjugated Mut15; MMAE conjugated Mut15) VH: QVQLVQSGAEVKKPGASVKVSCKASGYKFTGFVMHWVRQAPGQGLEWMGFINPYNDDIQSNERFRGRVTMTRDTSISTAYMELSRLRSDDTAVYYCARGNGLMFDGAYRFFDFWGQGTMVTVSS VL: DIVMTQSPLSLPVTPGEPASISCRSSQRLVHSNGRTYLHWYLQKPGQSPRLLIYRVSNRFPGVPDRFSGSGSGTDFTLKISRVEAEDVGVYYCSQSTHVPYTFGQGTKLEIK				binding result [3]: no binding (tested: not printed on the sheet)
Mut3 (KFN) (antibody, V domains shown, Variant of hJOVI-1; IgG format; also called anti-TRBC2 antibody KFN; anti-TRBC2 clone KFN) VH: QVQLVQSGAEVKKPGASVKVSCKASGYKFTGFVMHWVRQAPGQGLEWMGFINPYNDDIQSNERFRGRVTMTRDTSISTAYMELSRLRSDDTAVYYCARGNGYNFDGAYRFFDFWGQGTMVTVSS VL: DIVMTQSPLSLPVTPGEPASISCRSSQRLVHSNGNTYLHWYLQKPGQSPRLLIYRVSNRFPGVPDRFSGSGSGTDFTLKISRVEAEDVGVYYCSQSTHVPYTFGQGTKLEIK				binding result [4]: no binding (tested: 5 µg/ml); Kd [5]: 479 nM; koff [5]: 0.0386 s⁻¹; kon [5]: 83000 M⁻¹ s⁻¹
Mut11-MMAE (antibody, V domains shown, mc-vc-PAB-MMAE conjugated to reduced inter-chain cysteines; drug-antibody ratio 3.1, also called MMAE-conjugated Mut11; MMAE conjugated Mut11) VH: QVQLVQSGAEVKKPGASVKVSCKASGYTFTGYVMHWVRQAPGQGLEWMGFINPYNDDIQSNERFRGRVTMTRDTSISTAYMELSRLRSDDTAVYYCARGAGYNFDAAYRFFDFWGQGTMVTVSS VL: DIVMTQSPLSLPVTPGEPASISCRSSQRLVHSNGNTYLHWYLQKPGQSPRLLIYRVSNRFPGVPDRFSGSGSGTDFTLKISRVEAEDVGVYYCSQSTHVPYTFGQGTKLEIK				binding result [6]: no binding (tested: not printed on the sheet)
Mut9 (antibody, V domains shown, Variant of hJOVI-1; captured by anti-human IgG in SPR; also called VH G26P, T28K) VH: QVQLVQSGAEVKKPGASVKVSCKASPYKFTGYVMHWVRQAPGQGLEWMGFINPYNDDIQSNERFRGRVTMTRDTSISTAYMELSRLRSDDTAVYYCARGAGYNFDGAYRFFDFWGQGTMVTVSS VL: DIVMTQSPLSLPVTPGEPASISCRSSQRLVHSNGNTYLHWYLQKPGQSPRLLIYRVSNRFPGVPDRFSGSGSGTDFTLKISRVEAEDVGVYYCSQSTHVPYTFGQGTKLEIK	28.9	0.00248	85800	
Mut13 (antibody, V domains shown, Variant of hJOVI-1; captured by anti-human IgG in SPR; also called VH T28K, Y32F, A100N; VL N35K) VH: QVQLVQSGAEVKKPGASVKVSCKASGYKFTGFVMHWVRQAPGQGLEWMGFINPYNDDIQSNERFRGRVTMTRDTSISTAYMELSRLRSDDTAVYYCARGNGYNFDGAYRFFDFWGQGTMVTVSS VL: DIVMTQSPLSLPVTPGEPASISCRSSQRLVHSNGKTYLHWYLQKPGQSPRLLIYRVSNRFPGVPDRFSGSGSGTDFTLKISRVEAEDVGVYYCSQSTHVPYTFGQGTKLEIK	1000	0.108	107000	
Mut15 (antibody, V domains shown, Variant of hJOVI-1; IgG format; also called TRBC2 antibody Mut15; KFN variant Mut15) VH: QVQLVQSGAEVKKPGASVKVSCKASGYKFTGFVMHWVRQAPGQGLEWMGFINPYNDDIQSNERFRGRVTMTRDTSISTAYMELSRLRSDDTAVYYCARGNGLMFDGAYRFFDFWGQGTMVTVSS VL: DIVMTQSPLSLPVTPGEPASISCRSSQRLVHSNGRTYLHWYLQKPGQSPRLLIYRVSNRFPGVPDRFSGSGSGTDFTLKISRVEAEDVGVYYCSQSTHVPYTFGQGTKLEIK				binding result [3]: no binding (tested: not printed on the sheet); Kd [5]: 1900 nM; koff [5]: 0.0832 s⁻¹; kon [5]: 43800 M⁻¹ s⁻¹
Mut4 (RFN) (antibody, V domains shown, Variant of hJOVI-1; captured by anti-human IgG in SPR) VH: QVQLVQSGAEVKKPGASVKVSCKASGYRFTGFVMHWVRQAPGQGLEWMGFINPYNDDIQSNERFRGRVTMTRDTSISTAYMELSRLRSDDTAVYYCARGNGYNFDGAYRFFDFWGQGTMVTVSS VL: DIVMTQSPLSLPVTPGEPASISCRSSQRLVHSNGNTYLHWYLQKPGQSPRLLIYRVSNRFPGVPDRFSGSGSGTDFTLKISRVEAEDVGVYYCSQSTHVPYTFGQGTKLEIK				Kd [5]: 582 nM; koff [5]: 0.045 s⁻¹; kon [5]: 77600 M⁻¹ s⁻¹
Mut8 (antibody, V domains shown, Variant of hJOVI-1; captured by anti-human IgG in SPR; also called VH G31S) VH: QVQLVQSGAEVKKPGASVKVSCKASGYTFTSYVMHWVRQAPGQGLEWMGFINPYNDDIQSNERFRGRVTMTRDTSISTAYMELSRLRSDDTAVYYCARGAGYNFDGAYRFFDFWGQGTMVTVSS VL: DIVMTQSPLSLPVTPGEPASISCRSSQRLVHSNGNTYLHWYLQKPGQSPRLLIYRVSNRFPGVPDRFSGSGSGTDFTLKISRVEAEDVGVYYCSQSTHVPYTFGQGTKLEIK	7.69	0.000756	98300	
Mut5 (antibody, V domains shown, Variant of hJOVI-1; captured by anti-human IgG in SPR; also called VH Y32F) VH: QVQLVQSGAEVKKPGASVKVSCKASGYTFTGFVMHWVRQAPGQGLEWMGFINPYNDDIQSNERFRGRVTMTRDTSISTAYMELSRLRSDDTAVYYCARGAGYNFDGAYRFFDFWGQGTMVTVSS VL: DIVMTQSPLSLPVTPGEPASISCRSSQRLVHSNGNTYLHWYLQKPGQSPRLLIYRVSNRFPGVPDRFSGSGSGTDFTLKISRVEAEDVGVYYCSQSTHVPYTFGQGTKLEIK	426	0.0457	107000	
Mut10 (antibody, V domains shown, Variant of hJOVI-1; captured by anti-human IgG in SPR; also called VH Y102M) VH: QVQLVQSGAEVKKPGASVKVSCKASGYTFTGYVMHWVRQAPGQGLEWMGFINPYNDDIQSNERFRGRVTMTRDTSISTAYMELSRLRSDDTAVYYCARGAGMNFDGAYRFFDFWGQGTMVTVSS VL: DIVMTQSPLSLPVTPGEPASISCRSSQRLVHSNGNTYLHWYLQKPGQSPRLLIYRVSNRFPGVPDRFSGSGSGTDFTLKISRVEAEDVGVYYCSQSTHVPYTFGQGTKLEIK	90	0.00951	106000	

Further lines, with some results ahead:

Kd [1] [nM]	koff [1] [s⁻¹]	kon [1] [M⁻¹ s⁻¹]	Binder	other results
3590	0.323	90000	Mut14 (antibody, V domains shown, Variant of hJOVI-1; IgG format; also called VH T28K, Y32F, A100N, A107S) VH: QVQLVQSGAEVKKPGASVKVSCKASGYKFTGFVMHWVRQAPGQGLEWMGFINPYNDDIQSNERFRGRVTMTRDTSISTAYMELSRLRSDDTAVYYCARGNGYNFDGSYRFFDFWGQGTMVTVSS VL: DIVMTQSPLSLPVTPGEPASISCRSSQRLVHSNGNTYLHWYLQKPGQSPRLLIYRVSNRFPGVPDRFSGSGSGTDFTLKISRVEAEDVGVYYCSQSTHVPYTFGQGTKLEIK	
707	0.0613	86800	Mut12 (antibody, V domains shown, Variant of hJOVI-1; captured by anti-human IgG in SPR; also called VH T28K, Y32F, A100N, N103L; VL N35K) VH: QVQLVQSGAEVKKPGASVKVSCKASGYKFTGFVMHWVRQAPGQGLEWMGFINPYNDDIQSNERFRGRVTMTRDTSISTAYMELSRLRSDDTAVYYCARGNGYLFDGAYRFFDFWGQGTMVTVSS VL: DIVMTQSPLSLPVTPGEPASISCRSSQRLVHSNGKTYLHWYLQKPGQSPRLLIYRVSNRFPGVPDRFSGSGSGTDFTLKISRVEAEDVGVYYCSQSTHVPYTFGQGTKLEIK	
203	0.0177	87300	Mut11 (antibody, V domains shown, Variant of hJOVI-1; IgG format; also called VH G106A; anti-TRBC1 antibody Mut11) VH: QVQLVQSGAEVKKPGASVKVSCKASGYTFTGYVMHWVRQAPGQGLEWMGFINPYNDDIQSNERFRGRVTMTRDTSISTAYMELSRLRSDDTAVYYCARGAGYNFDAAYRFFDFWGQGTMVTVSS VL: DIVMTQSPLSLPVTPGEPASISCRSSQRLVHSNGNTYLHWYLQKPGQSPRLLIYRVSNRFPGVPDRFSGSGSGTDFTLKISRVEAEDVGVYYCSQSTHVPYTFGQGTKLEIK	binding result [7]: no binding
